Results as given in patent US20190231821A1 (US Dept. of Health and Human Services, published 2019).

Target: HERV-E peptide … (SEQ ID NO: 1) presented by HLA-A11 on cells (human)
Test: cell-based or functional assay

B1: HLA-A11 restricted HERV-E reactive T cell receptor (TCR α chain SEQ ID NO: 4, TCR β chain SEQ ID NO: 5) (TCR, V domains shown)
V domain 1: GIQVEQSPPDLILQEGANSTLRCNFSDSVNNLQWFHQNPWGQLINLFYIPSGTKQNGRLSATTVATERYSLLYISSSQTTDSGVYFCAVRGGADGLTFGKGTHLIIQP
V domain 2: DTEVTQTPKHLVMGMTNKKSLKCEQHMGHRAMYWYKQKAKKPPELMFVYSYEKLSINESVPSRFSPECPNSSLLNLHLHALQPEDSALYLCASSPPNEKLFFGSGTQLSVLE
  interferon-γ secretion by ELISA (FIG. 8): > 2 fold over background
